Source: patent US20230063116A1 (Regeneron, published 2023)
Read-outs that look alike come from different tables or passages of the source.

T1: VEGF121 (hVEGF121, aa 207-327) (human, UniProt P15692 207-327)
T1 chain: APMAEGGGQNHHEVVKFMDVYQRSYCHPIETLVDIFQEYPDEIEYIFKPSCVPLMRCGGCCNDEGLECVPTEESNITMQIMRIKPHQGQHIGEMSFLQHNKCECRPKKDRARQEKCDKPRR

T2: VEGF110 (hVEGF110, aa 207-318) (human, UniProt P15692 207-318)
T2 sequence (looked up): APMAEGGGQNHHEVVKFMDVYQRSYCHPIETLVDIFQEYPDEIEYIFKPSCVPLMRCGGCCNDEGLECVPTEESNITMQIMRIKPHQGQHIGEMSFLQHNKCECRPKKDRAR


Experiments:
[1] = biological target: T1, VEGF121 (hVEGF121, aa 207-327); experiment: cell-based or functional assay
[2] = biological target: T2, VEGF110 (hVEGF110, aa 207-318); experiment: cell-based or functional assay
human VEGF165 (REGN110) [3] = biological target: T3, human VEGF165 (REGN110) (human, UniProt P15692 207-395); experiment: SPR, Biacore, 25 C; trap captured on anti-VEGFR1 mAb surface, hVEGF165 injected; 1:1 fit
T3 construct: also called hVEGF165; hVEGF165(M1-R191)
Procedure: (§1) Experimental Procedure. Equilibrium dissociation constants (KD values) for human VEGF₁₆₅ binding to various purified VEGF mini-trap constructs were determined using a real-time surface plasmon resonance biosensor using a Biacore 3000 instrument. All binding studies were performed in 10 mM HEPES, 150 mM NaCl, 3 mM EDTA, and 0.05% v/v Surfactant Tween-20, pH 7.4 (HBS-ET) running buffer at 25° C. The Biacore sensor surface was first derivatized by amine coupling with a monoclonal mouse anti-VEGFR1 antibody to capture VEGF mini-trap constructs. Binding studies were performed on the human VEGF reagent, human VEGF₁₆₅ (human VEGF₁₆₅; SEQ ID NO: 31). Different concentrations of VEGF₁₆₅ reagent, prepared in HBS-ET running buffer (2 nM — 62.5 pM; 2-fold serial dilution for human VEGF₁₆₅), were injected over an anti-VEGFR1-captured VEGF mini-trap construct surface for 1.8 minutes at a flow rate of 90 μL/minute, while the dissociation of VEGF mini-trap constructs bound VEGF₁₆₅ reagent was monitored for 60 minutes in HBS-ET running buffer. Kinetic association (kₐ) and dissociation (kd) rate constants were determined by fitting the real-time sensorgrams to a 1:1 binding model using Scrubber 2.0c curve fitting software. Binding dissociation equilibrium constants (KD) and dissociative half-lives (t½) were calculated from the kinetic rate constants as: […]

human VEGF165 (REGN110) [4] = biological target: T3, human VEGF165 (REGN110); experiment: SPR, Biacore, 25 C; trap captured on anti-VEGFR1 mAb surface, hVEGF165 injected
Procedure: as §1

human VEGF165 (REGN110) [5] = biological target: T3, human VEGF165 (REGN110); experiment: SPR, Biacore 3000, 25 C; trap captured on anti-VEGFR1 mAb surface, hVEGF165 injected; 1:1 fit
[6] = biological target: T1, VEGF121 (hVEGF121, aa 207-327); experiment: cell-based or functional assay
[7] = biological target: T2, VEGF110 (hVEGF110, aa 207-318); experiment: cell-based or functional assay; remark: listed apart in the source
human VEGF165 (REGN110) [8] = biological target: T3, human VEGF165 (REGN110); experiment: SPR, Biacore 3000, 25 C; trap captured on anti-VEGFR1 mAb surface, hVEGF165 injected
human VEGF165 (REGN110) [9] = biological target: T3, human VEGF165 (REGN110); experiment: cell-based or functional assay
Target sequence in this assay (P15692 other isoform, or with tags, fused parts or gaps): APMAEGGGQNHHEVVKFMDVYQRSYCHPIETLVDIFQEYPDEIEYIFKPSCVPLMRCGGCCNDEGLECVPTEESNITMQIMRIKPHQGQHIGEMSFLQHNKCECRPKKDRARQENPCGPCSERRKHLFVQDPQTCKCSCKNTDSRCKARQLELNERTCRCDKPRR

[10] = biological target: T1, VEGF121 (hVEGF121, aa 207-327); experiment: cell-based or functional assay
[11] = biological target: T2, VEGF110 (hVEGF110, aa 207-318); experiment: cell-based or functional assay; remark: listed apart in the source

| Binder | IC50 (M), inhibition of VEGFR1 signaling (luciferase), 20 pM VEGF121 [1] [M] | IC50 (M), inhibition of VEGFR1 signaling (luciferase), 20 pM VEGF110 [2] [M] | Kd (human VEGF165 (REGN110) [3]) [nM] | koff (human VEGF165 (REGN110) [3]) [s⁻¹] | kon (human VEGF165 (REGN110) [3]) [M⁻¹ s⁻¹] | t1/2 (dissociative half-life) (human VEGF165 (REGN110) [3]) [h] | 2nM hVEGF165 Bound (human VEGF165 (REGN110) [4]) [RU] | Kd (human VEGF165 (REGN110) [5]) [nM] | koff (human VEGF165 (REGN110) [5]) [s⁻¹] | kon (human VEGF165 (REGN110) [5]) [M⁻¹ s⁻¹] | t½ (dissociative half-life) (human VEGF165 (REGN110) [5]) [h] | IC50 (M), inhibition of VEGFR1 signaling (luciferase), 20 pM VEGF121 [6] [M] | IC50 (M), inhibition of VEGFR1 signaling (luciferase), 20 pM VEGF110 [7] [M] | 100 nM hVEGF165 Bound (human VEGF165 (REGN110) [8]) [RU] | IC50 (M), inhibition of VEGFR1 signaling (luciferase), 20 pM VEGF165 (human VEGF165 (REGN110) [9]) [M] | IC50 (M), inhibition of VEGFR1 signaling (luciferase), 20 pM VEGF121 [10] [M] | IC50 (M), inhibition of VEGFR1 signaling (luciferase), 20 pM VEGF110 [11] [M] |
| --- | --- | --- | --- | --- | --- | --- | --- | --- | --- | --- | --- | --- | --- | --- | --- | --- | --- |
| REGN7991 (hVEGF minitrap-G4Sx9-hVEGF minitrap) (receptor, Monomeric single chain, no tag; also called REGN7991 (G4Sx9 linker); single chain mini-trap with (G4S)9, no tag) SDTGRPFVEMYSEIPEIIHMTEGRELVIPCRVTSPNITVTLKKFPLDTLIPDGKRIIWDSRKGFIISNATYKEIGLLTCEATVNGHLYKTNYLTHRQTNTIIDVVLSPSHGIELSVGEKLVLNCTARTELNVGIDFNWEYPSSKHQHKKLVNRDLKTQSGSEMKKFLSTLTIDGVTRSDQGLYTCAASSGLMTKKNSTFVRVHEKGGGGSGGGGSGGGGSGGGGSGGGGSGGGGSGGGGSGGGGSGGGGSSDTGRPFVEMYSEIPEIIHMTEGRELVIPCRVTSPNITVTLKKFPLDTLIPDGKRIIWDSRKGFIISNATYKEIGLLTCEATVNGHLYKTNYLTHRQTNTIIDVVLSPSHGIELSVGEKLVLNCTARTELNVGIDFNWEYPSSKHQHKKLVNRDLKTQSGSEMKKFLSTLTIDGVTRSDQGLYTCAASSGLMTKKNSTFVRVHEK | 7.71e-11 | 7.88e-11 | 0.0138 | 9.79e-05 | 7.1e+06 | 1.97 | 40 | – | – | – | – | – | – | – | – | – | – |
| REGN6824 (hVEGF minitrap-G4Sx3-hVEGF minitrap-mmH) (receptor, Monomeric single chain; also called REGN6824 (G4Sx3 linker); single chain mini-trap with (G4S)3 linker and C-terminal mmH tag) SDTGRPFVEMYSEIPEIIHMTEGRELVIPCRVTSPNITVTLKKFPLDTLIPDGKRIIWDSRKGFIISNATYKEIGLLTCEATVNGHLYKTNYLTHRQTNTIIDVVLSPSHGIELSVGEKLVLNCTARTELNVGIDFNWEYPSSKHQHKKLVNRDLKTQSGSEMKKFLSTLTIDGVTRSDQGLYTCAASSGLMTKKNSTFVRVHEKGGGGSGGGGSGGGGSSDTGRPFVEMYSEIPEIIHMTEGRELVIPCRVTSPNITVTLKKFPLDTLIPDGKRIIWDSRKGFIISNATYKEIGLLTCEATVNGHLYKTNYLTHRQTNTIIDVVLSPSHGIELSVGEKLVLNCTARTELNVGIDFNWEYPSSKHQHKKLVNRDLKTQSGSEMKKFLSTLTIDGVTRSDQGLYTCAASSGLMTKKNSTFVRVHEKEQKLISEEDLGGEQKLISEEDLHHHHHH | – | – | 0.0861 | 0.000554 | 6.44e+06 | 0.348 | 33 | 0.0861 | 0.000554 | 6.44e+06 | 0.348 | 2.44e-10 | 2.22e-10 | 33 | – | – | – |
| REGN7850 (VEGF mini-trap-hFc …) (receptor, Recombinant homodimer; also called REGN7850 (CPPCPPC)) SDTGRPFVEMYSEIPEIIHMTEGRELVIPCRVTSPNITVTLKKFPLDTLIPDGKRIIWDSRKGFIISNATYKEIGLLTCEATVNGHLYKTNYLTHRQTNTIIDVVLSPSHGIELSVGEKLVLNCTARTELNVGIDFNWEYPSSKHQHKKLVNRDLKTQSGSEMKKFLSTLTIDGVTRSDQGLYTCAASSGLMTKKNSTFVRVHEKDKTHTCPPCPPC | – | – | 0.00155 | ≥ 1e-05 | 6.46e+06 | ≥ 19.2 | 56 | – | – | – | – | – | – | – | 2.99e-11 | 1.66e-11 | 1.22e-11 |
| REGN7992 (hVEGF minitrap-G4Sx12-hVEGF minitrap) (receptor, Monomeric single chain, no tag; also called REGN7992 (G4Sx12 linker); single chain mini-trap with (G4S)12, no tag) SDTGRPFVEMYSEIPEIIHMTEGRELVIPCRVTSPNITVTLKKFPLDTLIPDGKRIIWDSRKGFIISNATYKEIGLLTCEATVNGHLYKTNYLTHRQTNTIIDVVLSPSHGIELSVGEKLVLNCTARTELNVGIDFNWEYPSSKHQHKKLVNRDLKTQSGSEMKKFLSTLTIDGVTRSDQGLYTCAASSGLMTKKNSTFVRVHEKGGGGSGGGGSGGGGSGGGGSGGGGSGGGGSGGGGSGGGGSGGGGSGGGGSGGGGSGGGGSSDTGRPFVEMYSEIPEIIHMTEGRELVIPCRVTSPNITVTLKKFPLDTLIPDGKRIIWDSRKGFIISNATYKEIGLLTCEATVNGHLYKTNYLTHRQTNTIIDVVLSPSHGIELSVGEKLVLNCTARTELNVGIDFNWEYPSSKHQHKKLVNRDLKTQSGSEMKKFLSTLTIDGVTRSDQGLYTCAASSGLMTKKNSTFVRVHEK | 2.37e-11 | 3.42e-11 | 0.0153 | 9.7e-05 | 6.3e+06 | 1.98 | 22 | – | – | – | – | – | – | – | – | – | – |
| REGN7080 (VEGF minitrap-G4Sx6-VEGF minitrap mmH) (receptor, Monomeric single chain; also called REGN7080 (G4Sx6 linker); single chain mini-trap with (G4S)6 linker and C-terminal mmH tag) SDTGRPFVEMYSEIPEIIHMTEGRELVIPCRVTSPNITVTLKKFPLDTLIPDGKRIIWDSRKGFIISNATYKEIGLLTCEATVNGHLYKTNYLTHRQTNTIIDVVLSPSHGIELSVGEKLVLNCTARTELNVGIDFNWEYPSSKHQHKKLVNRDLKTQSGSEMKKFLSTLTIDGVTRSDQGLYTCAASSGLMTKKNSTFVRVHEKGGGGSGGGGSGGGGSGGGGSGGGGSGGGGSSDTGRPFVEMYSEIPEIIHMTEGRELVIPCRVTSPNITVTLKKFPLDTLIPDGKRIIWDSRKGFIISNATYKEIGLLTCEATVNGHLYKTNYLTHRQTNTIIDVVLSPSHGIELSVGEKLVLNCTARTELNVGIDFNWEYPSSKHQHKKLVNRDLKTQSGSEMKKFLSTLTIDGVTRSDQGLYTCAASSGLMTKKNSTFVRVHEKEQKLISEEDLGGEQKLISEEDLHHHHHH | – | – | 0.0715 | 0.000387 | 5.41e+06 | 0.497 | 36 | 0.0715 | 0.000387 | 5.41e+06 | 0.497 | 1.66e-10 | 1.61e-10 | 36 | – | – | – |
| REGN7483^F (homodimer mini-trap, FabRICATOR cleaved from aflibercept) (receptor, N-linked glycans at N36, N68, N123, N196 (Table C), Disulfide-linked homodimer made by IdeS cleavage of aflibercept; also called dimer mini-trap from FabRICATOR (IdeS) cleavage of REGN3) SDTGRPFVEMYSEIPEIIHMTEGRELVIPCRVTSPNITVTLKKFPLDTLIPDGKRIIWDSRKGFIISNATYKEIGLLTCEATVNGHLYKTNYLTHRQTNTIIDVVLSPSHGIELSVGEKLVLNCTARTELNVGIDFNWEYPSSKHQHKKLVNRDLKTQSGSEMKKFLSTLTIDGVTRSDQGLYTCAASSGLMTKKNSTFVRVHEKDKTHTCPPCPAPELLG | – | – | 0.00132 | ≥ 1e-05 | 7.59e+06 | ≥ 19.2 | – | ≤ 0.00132 | ≤ 1e-05 | 7.58e+06 | ≥ 19.2 | – | – | – | 1.23e-11 | – | 1.04e-11 |
| REGN7483^R (homodimer mini-trap, recombinant) (receptor, N-linked glycans at N36, N68, N123, N196 (Table C), also called Recombinant dimer mini-trap) SDTGRPFVEMYSEIPEIIHMTEGRELVIPCRVTSPNITVTLKKFPLDTLIPDGKRIIWDSRKGFIISNATYKEIGLLTCEATVNGHLYKTNYLTHRQTNTIIDVVLSPSHGIELSVGEKLVLNCTARTELNVGIDFNWEYPSSKHQHKKLVNRDLKTQSGSEMKKFLSTLTIDGVTRSDQGLYTCAASSGLMTKKNSTFVRVHEKDKTHTCPPCPAPELLG | – | – | 0.00159 | ≥ 1e-05 | 6.3e+06 | ≥ 19.2 | – | ≤ 0.00158 | ≤ 1e-05 | 6.3e+06 | ≥ 19.2 | – | – | – | 1.92e-11 | – | 1.3e-11 |
| REGN7851 (VEGF mini-trap-hFc …) (receptor, Recombinant homodimer; also called REGN7851 (CPPCPPCPPC)) SDTGRPFVEMYSEIPEIIHMTEGRELVIPCRVTSPNITVTLKKFPLDTLIPDGKRIIWDSRKGFIISNATYKEIGLLTCEATVNGHLYKTNYLTHRQTNTIIDVVLSPSHGIELSVGEKLVLNCTARTELNVGIDFNWEYPSSKHQHKKLVNRDLKTQSGSEMKKFLSTLTIDGVTRSDQGLYTCAASSGLMTKKNSTFVRVHEKDKTHTCPPCPPCPPC | – | – | 0.00181 | ≥ 1e-05 | 5.51e+06 | ≥ 19.2 | 51 | – | – | – | – | – | – | – | 2.68e-11 | 1.83e-11 | 1.45e-11 |
